Entries after “also recorded” stand apart in the source; their conditions may differ. Bridge positions count the residues as written; N and C are the ends. Square brackets hold non-standard residues; d marks the D form. Ends that are not written are not given here. Peptide text beside a SMILES is read from it. I, II: the chains in the order shown. Aoc = NCCCCCCCC(=O)O
Columns and labels:
S. mutans [1] = assay: Post-antibiotic effect assay, monoculture growth after 10 min treatment; format: cell-based, Streptococcus mutans; details: peptide 10 min, then fresh medium
Procedure: (§1) The activity and selectivity of MH-STAMPs after a 10 min incubation was determined by growth retardation experiments against targeted and untargeted bacteria in monocultures, as described previously (Id.). Cells from overnight cultures were diluted to ˜5×10^6 cfu/mL in MH (or TH with 1% sucrose for S. mutans), normalized by OD600 0.05-0.1 and seeded to 96-well plates. Cultures were then grown under the appropriate conditions for 2 h (3 h for S. mutans) prior to the addition of peptides for 10 min. Plates were then centrifuged at 3000×g for 5 min, the supernatants discarded, fresh medium returned (MH or TH without sucrose for S. mutans), and incubation resumed. Bacterial growth after treatment was then monitored over time by OD600.
(§2) MH-STAMP antimicrobial kinetics was ascertained utilizing a variation of the classical post-antibiotic effect assay, which measures the ability of an agent to affect an organism's growth after a short exposure period. Monocultures of MH-STAMP-targeted and untargeted organisms were exposed to M8(KH)-20, M8(BL)-20, BL(KH)-20, or unmodified BD2.20, then allowed to recover. […] Furthermore, replacement of the targeting region with a non-binding peptide abolishes specific activity.

P. aeruginosa [2] = assay: as above; format: cell-based, Pseudomonas aeruginosa; details: peptide 10 min, then fresh medium
Procedure: as §1, §2

S. epidermidis [3] = assay: as above; format: cell-based, Staphylococcus epidermidis; details: peptide 10 min, then fresh medium
Procedure: as §1, §2

S. aureus = assay: as above; format: cell-based, Staphylococcus aureus; details: peptide 10 min, then fresh medium
Procedure: as §1, §2

E. coli [4] = assay: as above; format: cell-based, Escherichia coli; details: peptide 10 min, then fresh medium
Procedure: as §1, §2

S. mutans [5] = assay: Microbial population shift assay, mixed planktonic culture; format: cell-based, Streptococcus mutans; details: 10 μM peptide, 24 h, detection limit 200 cfu/mL
Procedure: (§3) Peptide (10 μM) or mock-treatment (1×PBS) was then added and samples were incubated at 37° C. for 24 h under anaerobic conditions (80% N2, 15% CO2, 5% H2). […] Plates were then incubated 37° C. under aerobic conditions (TH plates were incubated anaerobically) and colonies counted after 24 h to determine survivors. […] Gram stains and direct microscopic observation (from select isolated colonies) were undertaken to confirm species identity (data not shown). The detection limit of the assay was 200 cfu/mL.
(§4) We hypothesized that potential MH-STAMP dual-functionality could affect a particular set of bacteria within a mixed population, thereby promoting the outgrowth of non-targeted organisms and “shifting” the constituent makeup. To examine this possibility, defined mixed populations of planktonic cells were treated continuously and the make-up of the community examined after 24 h.

P. aeruginosa [6] = assay: as above; format: cell-based, Pseudomonas aeruginosa; details: 10 μM peptide, 24 h, detection limit 200 cfu/mL
Procedure: as §3, §4

E. coli [7] = assay: as above; format: cell-based, Escherichia coli; details: 10 μM peptide, 24 h, detection limit 200 cfu/mL
Procedure: as §3, §4

S. epidermidis [8] = assay: as above; format: cell-based, Staphylococcus epidermidis; details: 10 μM peptide, 24 h, detection limit 200 cfu/mL
Procedure: as §3, §4

S. mutans [9] = assay: STAMP activity in formulations (buffer/salt dependence); format: cell-based, Streptococcus mutans
Source text: During the course of evaluating STAMPs, antimicrobial peptides (AMPs), and binding peptides for desired activity, it was discovered that certain formulations can attenuate or promote peptide activity, as compared to activity levels in a default buffer system (1×PBS). In some cases, 1×PBS may provide the best level of activity. Below are a number of formulations that alter, or may alter, peptide or STAMP activity. For complex buffer systems, assume the base solvent is water unless otherwise stated.
It was a surprising discovery that certain anti-S. mutans STAMPs required a salt in the formulation (e.g., PBS) for optimum activity. […] Suitable PBS formulations ranged from 0.5×PBS to about 2.5×PBS with an activity optimum at about 1×PBS. Similar results are believed to obtain for other anti-S. mutans STAMPS as well as a number of other STAMPs. In certain embodiments STAMP stability in solution was improved by inclusion of fluoride in mouthrinse.

microorganisms [10] = assay: Peptide activities: binding, antimicrobial, growth or phenotype altering (Table 8)
Source text: In certain embodiments, peptides described herein can have multiple activities. Thus for example, a peptide can have both binding/targeting activity and antimicrobial activity. Such peptides can be used, e.g., in a chimeric construct, for any or all of these properties. Thus, for example, a peptide designated “B” in Table 8 can be used as a targeting peptide. If it is also designated G or M it can also be used for antimicrobial activity.

bacteria = assay: Binding of targeting peptides to microorganisms (Table 3); details: peptide binding in aqueous buffers that varied depending on peptide solubility; preferably 1x PBS
microorganisms [11] = assay: Morphology, biofilm and growth disruption by peptides (Table 5); format: cell-based; design: key: A: Peptide aggregates; B: Less hyphal formation; Clumps; Diffuse clumps and small polyps; F: Diffuse growth; H: Thin; I: Growth inhibition; Microcolony formation; Rippled; Small polyps; Thick; W: Halo formation on top, microlonies on bottom
Source text: In certain embodiments peptides that induce alterations in phenotype or other biological activities can also be used as antimicrobial effector moieties.

## CC[C@H](C)[C@H](NC(=O)[C@@H](N)Cc1ccccc1)C(=O)N[C@@H](CCCNC(=N)N)C(=O)N[C@@H](CCCCN)C(=O)N[C@@H](Cc1ccccc1)C(=O)N[C@@H](CC(C)C)C(=O)N[C@@H](CCCCN)C(=O)N[C@@H](CCCCN)C(=O)N[C@@H](Cc1c[nH]c2ccccc12)C(=O)N[C@@H](CC(C)C)C(=O)N[C@@H](CC(C)C)C(N)=O [BD2.20] (H-FIRKFLKKWLL-NH2; N-terminus assumed)
S. mutans [1]
  S. mutans growth (OD600) after treatment: robust antimicrobial activity
P. aeruginosa [2]
  P. aeruginosa growth (OD600) after treatment: robust antimicrobial activity
S. epidermidis [3]
  S. epidermidis growth (OD600) after treatment: inhibited
S. aureus
  S. aureus growth (OD600) after treatment: inhibited
E. coli [4]
  E. coli growth (OD600) after treatment: inhibited
S. mutans [5]
  surviving S. mutans cfu/mL: significant loss of recoverable cfu/mL
P. aeruginosa [6]
  surviving P. aeruginosa cfu/mL: significant loss of recoverable cfu/mL
E. coli [7]
  surviving E. coli cfu/mL: significant loss of recoverable cfu/mL
S. epidermidis [8]
  surviving S. epidermidis cfu/mL: significant loss of recoverable cfu/mL

## CC[C@H](C)[C@H](NC(=O)[C@H](Cc1ccccc1)NC(=O)CCCCCCCNC(=O)[C@H](CCCCNC(=O)CNC(=O)CNC(=O)CNC(=O)[C@H](Cc1c[nH]cn1)NC(=O)[C@H](CCCCN)NC(=O)[C@H](CCCNC(=N)N)NC(=O)[C@H](Cc1c[nH]cn1)NC(=O)[C@H](CCCCN)NC(=O)[C@H](CCCNC(=N)N)NC(=O)[C@H](Cc1c[nH]cn1)NC(=O)[C@H](CCCCN)NC(=O)[C@H](CCCNC(=N)N)NC(=O)[C@H](Cc1c[nH]cn1)NC(=O)[C@H](CCCCN)NC(=O)[C@@H](N)CCCCN)NC(=O)CNC(=O)CNC(=O)CNC(=O)[C@H](C)NC(=O)[C@H](CCC(=O)O)NC(=O)[C@H](CC(N)=O)NC(=O)[C@H](C)NC(=O)[C@H](C)NC(=O)[C@H](CC(=O)O)NC(C)=O)C(=O)N[C@@H](CCCNC(=N)N)C(=O)N[C@@H](CCCCN)C(=O)N[C@@H](Cc1ccccc1)C(=O)N[C@@H](CC(C)C)C(=O)N[C@@H](CCCCN)C(=O)N[C@@H](CCCCN)C(=O)N[C@@H](Cc1c[nH]c2ccccc12)C(=O)N[C@@H](CC(C)C)C(=O)N[C@@H](CC(C)C)C(N)=O [BL(KH)-20] (I: Ac-DAANEAGGGK[Aoc]FIRKFLKKWLL-NH2 / II: H-KKHRKHRKHRKHGGG; amide I:10-II:C)
S. mutans [1]
  S. mutans growth (OD600) after treatment: not altered
S. mutans [5]
  surviving S. mutans cfu/mL: higher than input cfu/mL
P. aeruginosa [6]
  surviving P. aeruginosa cfu/mL: not observed
E. coli [7]
  surviving E. coli cfu/mL: unchanged numbers
S. epidermidis [8]
  surviving S. epidermidis cfu/mL: unchanged numbers

## TFFRLFNRSFTQALGKGGGKNLRIIRKGIHIIKKY* (TFFRLFNRSFTQALGKGGGKNLRIIRKGIHIIKKY-NH2) [Peptide C16G2, anti-S. mutans STAMP]
S. mutans [9]; PBS formulations 0.5×PBS to about 2.5×PBS
  activity optimum (PBS strength): about 1 ×PBS
S. mutans [9]; water-based salt-free buffers and nanoemulsions
  activity: substantially inactive

B1: PF-749 (peptide)
chain 1: GVNKWWEEHNKAKLWKNVKGKFLEGEGEEEDDE
chain 2: GVNKWWEEHNKAKLWKNVKGKFLEGEGEEEDDE
modifications: Peptide with targeting and/or antimicrobial activity
Microorganisms [10]
  Activities: G B
bacteria
  Target(s) (microorganism bound by the targeting peptide): S. epidermidis; also recorded: M. luteus; also recorded: E. coli; also recorded: P. aeruginosa; also recorded: C. albicans; also recorded: S. pneumoniae; also recorded: C. jeikeium
Microorganisms [11]; S. pneumoniae
  Organism, effect (morphology, biofilm and growth disruption): S. pneumoniae (H)

B2: PF-763 (peptide)
chain 1: GIWMARNYFHRSSIRKVYVESDKEYERVHPMQKIQYEGNYKSQ
chain 2: GIWMARNYFHRSSIRKVYVESDKEYERVHPMQKIQYEGNYKSQ
modifications: Peptide with targeting and/or antimicrobial activity
Microorganisms [10]
  Activities: G B
bacteria
  Target(s) (microorganism bound by the targeting peptide): S. epidermidis and M. luteus and E. coli and C. albicans and MRSA and S. pneumoniae and E. faecalis
Microorganisms [11]; M. luteus
  Organism, effect (morphology, biofilm and growth disruption): M. luteus (C)
Microorganisms [11]; MRSA
  Organism, effect (morphology, biofilm and growth disruption): MRSA (D)
Microorganisms [11]; S. epidermidis
  Organism, effect (morphology, biofilm and growth disruption): S. epidermidis (M)
Microorganisms [11]; S. pneumoniae
  Organism, effect (morphology, biofilm and growth disruption): S. pneumoniae (C)

B3: PF-761 (peptide)
chain 1: SKFELVNYASGCSCGADCKCASETECKCASKK
chain 2: SKFELVNYASGCSCGADCKCASETECKCASKK
modifications: Peptide with targeting and/or antimicrobial activity
Microorganisms [10]
  Activities: G B
bacteria
  Target(s) (microorganism bound by the targeting peptide): S. epidermidis and M. luteus and P. mirabilis and P. aeruginosa and C. albicans and MRSA and S. pneumoniae and E. faecalis
Microorganisms [11]; E. coli
  Organism, effect (morphology, biofilm and growth disruption): E. coli (C)
Microorganisms [11]; M. luteus
  Organism, effect (morphology, biofilm and growth disruption): M. luteus (C)
Microorganisms [11]; MRSA
  Organism, effect (morphology, biofilm and growth disruption): MRSA (D)
Microorganisms [11]; P. aeruginosa
  Organism, effect (morphology, biofilm and growth disruption): P. aeruginosa (C)
Microorganisms [11]; S. epidermidis
  Organism, effect (morphology, biofilm and growth disruption): S. epidermidis (C)
Microorganisms [11]; S. mutans
  Organism, effect (morphology, biofilm and growth disruption): S. mutans (D)
Microorganisms [11]; S. pneumoniae
  Organism, effect (morphology, biofilm and growth disruption): S. pneumoniae (C)

B4: PF-745 (peptide)
chain 1: ANSQNSLFSNRSSFKSIFDKKSNITTNATTPNSNIIIN
chain 2: ANSQNSLFSNRSSFKSIFDKKSNITTNATTPNSNIIIN
modifications: Peptide with targeting and/or antimicrobial activity
Microorganisms [10]
  Activities: G B
bacteria
  Target(s) (microorganism bound by the targeting peptide): S. epidermidis; also recorded: M. luteus; also recorded: C. albicans
Microorganisms [11]; M. luteus
  Organism, effect (morphology, biofilm and growth disruption): M. luteus (C)
Microorganisms [11]; MRSA
  Organism, effect (morphology, biofilm and growth disruption): MRSA (C)
Microorganisms [11]; S. mutans
  Organism, effect (morphology, biofilm and growth disruption): S. mutans (D)
Microorganisms [11]; S. pneumoniae
  Organism, effect (morphology, biofilm and growth disruption): S. pneumoniae (C)
